Laboratory results reported in patent publication US20260062488A1 (AbbVie / Abbott, published 2026).

Assays:
FcgRIIIB SH = molecular target: T1, FcgRIIIB SH (human, UniProt O75015); experiment: flow cytometry on CHO-K1 cells expressing the receptor (curve FcgRIIIB SH), monomeric antibody, F(ab')2 anti-human IgG AF647; N=1
T1 construct: cell surface, on engineered CHO-K1 cells; the list of molecules has only an FcγRIIIb on CHO-K1 cells without the allotype; also called human FcγRIIIb (SH) on CHO-K1 cells
T1 sequence (O75015 17-200 N65S/A78D limits assumed): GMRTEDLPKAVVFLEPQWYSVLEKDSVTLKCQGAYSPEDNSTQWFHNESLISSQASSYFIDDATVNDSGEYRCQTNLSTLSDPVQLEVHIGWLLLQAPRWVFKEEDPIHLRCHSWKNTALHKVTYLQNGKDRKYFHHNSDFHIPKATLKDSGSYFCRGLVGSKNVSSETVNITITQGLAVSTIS

FcgRIIA R131 = molecular target: T2, FcgRIIA R131 (human, UniProt P12318); experiment: flow cytometry on CHO-K1 cells expressing the receptor (curve FcgRIIA R131), monomeric antibody, F(ab')2 anti-human IgG AF647; N=1
T2 construct: cell surface, on engineered CHO-K1 cells; the list of molecules has only an FcγRIIa on CHO-K1 cells without the variant; also called human FcγRIIa (R131) on CHO-K1 cells
T2 sequence (receptor chain, looked up): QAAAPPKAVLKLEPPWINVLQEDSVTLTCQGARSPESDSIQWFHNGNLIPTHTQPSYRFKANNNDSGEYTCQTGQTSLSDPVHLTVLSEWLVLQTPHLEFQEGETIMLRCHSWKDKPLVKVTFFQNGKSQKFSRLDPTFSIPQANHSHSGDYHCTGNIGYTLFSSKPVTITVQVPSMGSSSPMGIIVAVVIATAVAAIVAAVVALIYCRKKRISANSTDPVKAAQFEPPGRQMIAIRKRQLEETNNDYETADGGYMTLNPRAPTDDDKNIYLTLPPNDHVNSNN

rabbit α4β7 integrin = molecular target: T3, rabbit α4β7 integrin (rabbit); experiment: FACS, rabbit lymphocytes
T3 construct: whole, on cells; On rabbit PBMCs

cynomolgus α4β7 integrin = molecular target: T4, cynomolgus α4β7 integrin (cynomolgus monkey); experiment: FACS, cyno total CD8+ T cells
T4 construct: whole, on cells; On CHOK1-cα4β7 cells or cynomolgus blood lymphocytes; also called cα4β7; cyno α4β7

B1: Ab-h1.9d-WT (antibody, human IgG1, kappa)
heavy: not shown
light: DIQMTQSPSSLSASVGDRVTITCHASQDISDNIGWLQQKPGKSFKLLIYHGTNLEDGVPSRFSGSGSGTDYTLTISSLQPEDFATYYCVQYAQFPWTFGGGTKVEIKRTVAAPSVFIFPPSDEQLKSGTASVVCLLNNFYPREAKVQWKVDNALQSGNSQESVTEQDSKDSTYSLSSTLTLSKADYEKHKVYACEVTHQGLSSPVTKSFNRGEC
notes: IgG1/kappa with D356E and L358M (EU); also called Anti-human α4β7 (AC-166667) hu IgG1/k WT mAb
- binding result (FcgRIIIB SH): binds
- binding result (FcgRIIA R131): binds
- EC50 (rabbit α4β7 integrin): 0.089 nM
- EC50 (cynomolgus α4β7 integrin): 0.035 nM
